# Measured values from patent US20050074854A1 (TRIPEP, published 2005).
# Target: gp120 of HIV-1 IIIB (on virus) (HIV-1 IIIB)
# Test: cell-based or functional assay
Binder,"neutralization of HIV-1 IIIB (reduction of syncytia/PFU, U87/CD4 cells); CD4 peptide alone, 0.1 ug/ml","neutralization of HIV-1 IIIB (reduction of syncytia/PFU, U87/CD4 cells); CD4 peptide alone, 1 ug/ml","neutralization of HIV-1 IIIB (reduction of syncytia/PFU, U87/CD4 cells); CD4 peptide alone, 10 ug/ml"
QGSFLTKGPSKLNDR [CD4 peptide Seq. Id. No. 7 without the coupled sugar],< 0.3 fraction neutralized (0.3 = 30%),< 0.3 fraction neutralized (0.3 = 30%),< 0.3 fraction neutralized (0.3 = 30%)
NSNQIKILGNQGSFL [CD4 peptide Seq. Id. No. 5 without the coupled sugar],< 0.3 fraction neutralized (0.3 = 30%),< 0.3 fraction neutralized (0.3 = 30%),< 0.3 fraction neutralized (0.3 = 30%)
KILGNQGSFLTKGPS [CD4 peptide Seq. Id. No. 6 without the coupled sugar],< 0.3 fraction neutralized (0.3 = 30%),< 0.3 fraction neutralized (0.3 = 30%),< 0.3 fraction neutralized (0.3 = 30%)
QFHWKNSNQIKILGN [CD4 peptide Seq. Id. No. 4 without the coupled sugar],< 0.3 fraction neutralized (0.3 = 30%),< 0.3 fraction neutralized (0.3 = 30%),< 0.3 fraction neutralized (0.3 = 30%)
